Assay results from patent US20260109763A1 (DENALI THERAPEUTICS, published 2026).
Read-outs that look alike come from different tables or passages of the source.

Columns and labels:
human PILRA R78 on cells [1] = molecular target: T1, human PILRA R78 on cells (human, UniProt Q9UKJ1 20-303); experiment: flow cytometry on HEK293 PILRA R78 cells with sialidase treatment; with sialidase treatment
T1 construct: also called hPILRA R78; PILRA 78R
Description: (§1) PILRA 78G or PILRA 78R expressing HEK293 cells were treated with SialEXO (Genovis). […] It is a combination of two sialidases acting on α2-3, α2-6 and α2-8 linkages. […] Cells were then washed twice and incubated and stained with NucBlue Live Stain for 30 mins at RT.
(§2) Following the same protocol, sialidase treatment was also performed on HEK cells expressing PILRA R78.

[2] = molecular target: T2, human PILRB extracellular domain (recombinant) (human, UniProt Q9UKJ0 20-191); experiment: SPR, Biacore 8K, recombinant ECD
T2 construct: also called hPILRB
Description: (§3) Antibodies were captured on Biacore™ Series S CM5 sensor chips immobilized with mouse anti-human Fab (human Fab capture kit from GE Healthcare) followed by injections of serial 3-fold dilutions of recombinant ECD reagents at a flow rate of 30 μL/min. Each sample was analyzed using a 3-minute association followed by a 10-minute dissociation. After each injection, the sensor chip was regenerated using a 5 0 mM glycine pH2.0 regeneration buffer. A 1:1 Languir model of simultaneous fitting of kₒₙ and koff was used for kinetics analysis.

human PILRA G78 on cells [3] = molecular target: T3, human PILRA G78 on cells (human, UniProt Q9UKJ1 20-303); experiment: flow cytometry on HEK293 cells expressing hPILRA G78
T3 construct: wild-type iMicroglia are R78/G78 heterozygous (said in the assay field); also called hPILRA; hPILRA G78
Description: Parental HEK293 cells were labeled with NucBlue Live ReadyProbes Reagent for 30 mins. […] Antibody binding to the cells was detected by FACS and median fluorescence intensity (MFI) was derived from data analysis performed with the FLOJO software (FIGS. 1A-1C).

human PILRA R78 on cells [4] = molecular target: T1, human PILRA R78 on cells; experiment: flow cytometry on HEK293 PILRA R78 cells without sialidase treatment; without sialidase treatment
Description: as §1, §2

[5] = molecular target: T4, cynomolgus monkey PILRA extracellular domain (recombinant) (cynomolgus monkey); experiment: SPR, Biacore 8K; antibody captured via anti-human Fab, recombinant ECD injected; 1:1 fit;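 further: CM5 sensor chip, ECD analyte in threefold dilution series at 30 µL/min, 3 min association and 10 min dissociation, kon and koff fitted simultaneously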
T4 construct: also called cynoPILRA; Cyno PILRA
Description: as §3

[6] = molecular target: T5, human PILRA G78 extracellular domain (recombinant hPILRA ECD) (human, UniProt Q9UKJ1 20-197); experiment: as above
T5 construct: also called hPILRA G78
Description: as §3

human PILRA G78 on cells [7] = molecular target: T3, human PILRA G78 on cells; experiment: flow cytometry on HEK293 PILRA G78 cells with sialidase treatment
Description: as §1

human PILRB on cells [8] = molecular target: T6, human PILRB on cells (human, UniProt Q9UKJ0 20-227); experiment: flow cytometry (MFI), CHO-K1 cells expressing hPILRB
T6 construct: Expressed on CHO-K1 cells, or together with DAP12 on HEK293 cells (hPILRB-DAP12 OE HEK293); also called hPILRB; hPILRB-DAP12
Description: Antibody binding to the cells was detected by FACS and MFI was derived from data analysis performed with the FLOJO software.

human PILRA G78 on cells [9] = molecular target: T3, human PILRA G78 on cells; experiment: flow cytometry on HEK293 PILRA G78 cells without sialidase treatment
Description: as §1

human PILRA G78 on cells [10] = molecular target: T3, human PILRA G78 on cells; experiment: cell-based or functional assay
[11] = molecular target: T5, human PILRA G78 extracellular domain …; experiment: SPR, Biacore 8K; hPILRA ECD; antibody with wild-type Fc
Description: as §3
Characterization for binding affinities of the humanized antibodies to hPILRA ECD were measured by SPR using a Biacore 8K instrument (Table 7).

human PILRA R78 on cells [12] = molecular target: T1, human PILRA R78 on cells; experiment: cell-based or functional assay
[13] = molecular target: T4, cynomolgus monkey PILRA extracellular …; experiment: SPR
[14] = molecular target: T2, human PILRB extracellular domain …; experiment: SPR
[15] = molecular target: T5, human PILRA G78 extracellular domain …; experiment: SPR
[16] = molecular target: T7, human PILRA R78 extracellular domain (recombinant) (human, UniProt Q9UKJ1 20-197); experiment: SPR
T7 construct: also called hPILRA R78

human PILRA R78 on cells [17] = molecular target: T1, human PILRA R78 on cells; experiment: flow cytometry on PILRA R78 expressing HEK293 cells (FIG. 1F); HEK293 cells expressing PILRA R78
Description: (§4) PILRA G78 or R78 overexpressing HEK293 cells were stained with NucBlue Live cell stain for 30 mins at RT. […] Cell lines were run in duplicate to account for intra-variability, for a total of N=3. The same protocol was used for CHO-K1 cells expressing hPILRA G78.

human PILRA G78 on cells [18] = molecular target: T3, human PILRA G78 on cells; experiment: flow cytometry on HEK293 cells expressing hPILRA G78; remark: listed apart in the source
human PILRA G78 on cells [19] = molecular target: T3, human PILRA G78 on cells; experiment: flow cytometry on PILRA G78 expressing CHO-K1 cells (FIG. 1H)
Description: as §4

human PILRA G78 on cells [20] = molecular target: T3, human PILRA G78 on cells; experiment: cell-based or functional assay; remark: listed apart in the source
human PILRA G78 on cells [21] = molecular target: T3, human PILRA G78 on cells; experiment: cell binding, HEK293 cells expressing hPILRA G78; antibody with modified Fc
human PILRA R78 on cells [22] = molecular target: T1, human PILRA R78 on cells; experiment: cell binding, HEK293 cells expressing hPILRA R78; antibody with modified Fc
[23] = molecular target: T4, cynomolgus monkey PILRA extracellular …; experiment: SPR; remark: listed apart in the source
[24] = molecular target: T2, human PILRB extracellular domain …; experiment: SPR; remark: listed apart in the source
[25] = molecular target: T5, human PILRA G78 extracellular domain …; experiment: SPR; remark: listed apart in the source
[26] = molecular target: T7, human PILRA R78 extracellular domain …; experiment: SPR; remark: listed apart in the source
[27] = molecular target: T4, cynomolgus monkey PILRA extracellular …; experiment: SPR, Biacore 8K, recombinant ECD
Description: as §3

[28] = molecular target: T8, cynomolgus monkey PILRA on cells (cynomolgus monkey); experiment: flow cytometry, CHO cells expressing cynoPILRA, MFI as fold over isotype control
T8 construct: Expressed on CHO-K1 cells; also called cynoPILRA; cyno PILRA

human PILRB on cells [29] = molecular target: T6, human PILRB on cells; experiment: flow cytometry, CHO cells expressing hPILRB, MFI as fold over isotype control

T5 sequence (Q9UKJ1 20-197 R78G limits assumed): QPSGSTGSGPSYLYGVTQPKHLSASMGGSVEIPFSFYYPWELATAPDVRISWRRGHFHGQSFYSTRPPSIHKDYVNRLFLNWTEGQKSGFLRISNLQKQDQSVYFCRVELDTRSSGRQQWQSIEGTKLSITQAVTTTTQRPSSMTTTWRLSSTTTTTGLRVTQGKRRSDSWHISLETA
T8 sequence (chain, as listed by the source limits assumed): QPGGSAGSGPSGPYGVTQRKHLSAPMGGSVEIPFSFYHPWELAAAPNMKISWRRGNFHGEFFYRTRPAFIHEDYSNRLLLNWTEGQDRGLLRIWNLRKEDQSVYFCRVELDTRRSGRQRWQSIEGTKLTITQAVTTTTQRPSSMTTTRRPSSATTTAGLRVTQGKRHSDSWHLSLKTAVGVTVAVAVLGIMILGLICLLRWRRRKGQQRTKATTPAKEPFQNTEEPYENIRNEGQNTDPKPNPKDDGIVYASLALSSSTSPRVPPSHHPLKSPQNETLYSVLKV
T4 sequence (chain, as listed by the source limits assumed): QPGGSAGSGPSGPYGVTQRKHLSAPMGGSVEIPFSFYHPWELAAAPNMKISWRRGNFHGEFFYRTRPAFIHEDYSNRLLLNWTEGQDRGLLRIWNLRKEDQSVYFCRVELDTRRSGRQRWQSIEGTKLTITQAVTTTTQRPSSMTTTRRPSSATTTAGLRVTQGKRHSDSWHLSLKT
T1 sequence (Q9UKJ1 20-303 limits assumed): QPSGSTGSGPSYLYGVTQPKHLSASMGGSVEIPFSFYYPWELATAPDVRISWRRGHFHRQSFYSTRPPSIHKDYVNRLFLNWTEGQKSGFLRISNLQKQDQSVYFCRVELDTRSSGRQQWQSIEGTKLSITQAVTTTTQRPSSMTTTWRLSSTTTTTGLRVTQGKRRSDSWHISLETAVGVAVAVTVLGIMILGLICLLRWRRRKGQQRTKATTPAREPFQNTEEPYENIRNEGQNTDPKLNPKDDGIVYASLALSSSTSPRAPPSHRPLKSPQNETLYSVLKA
T7 sequence (Q9UKJ1 20-197 limits assumed): as the sequence (Q9UKJ1 20-197 R78G limits assumed) above, with G59R counted along it
T2 sequence (Q9UKJ0 20-191 limits assumed): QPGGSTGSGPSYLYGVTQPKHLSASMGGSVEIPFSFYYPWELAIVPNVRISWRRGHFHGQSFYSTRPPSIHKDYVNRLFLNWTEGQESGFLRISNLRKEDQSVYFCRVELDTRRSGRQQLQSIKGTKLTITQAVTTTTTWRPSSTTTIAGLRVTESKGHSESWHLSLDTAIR
T6 sequence (Q9UKJ0 20-227 limits assumed): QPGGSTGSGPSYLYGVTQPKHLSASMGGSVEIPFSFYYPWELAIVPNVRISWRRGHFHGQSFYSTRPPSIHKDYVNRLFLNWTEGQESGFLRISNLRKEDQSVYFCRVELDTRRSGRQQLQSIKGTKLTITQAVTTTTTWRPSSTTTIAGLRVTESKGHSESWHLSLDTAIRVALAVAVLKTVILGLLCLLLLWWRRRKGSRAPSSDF
T3 sequence (Q9UKJ1 20-303 R78G limits assumed): as the sequence (Q9UKJ1 20-303 limits assumed) above, with R59G counted along it

B1: Anti-PILRA antibody clone 5 (antibody, human IgG1, kappa, L234A L235A, V domains shown)
VH: QVQLVQSGAEVKKPGASVRVSCKASGYTFIGFYIHWVRQAPGQGLEWMGWINPESGDTTYAQKFQGRVTMTTDTSINTAYMDLNRLRSDDSAVYFCARGNWNFPDTFDFWGQGTMVIVSS
VL: DIQMTQSPSSLSASVGDRVTITCRSSQSISIYLNWHQQIPGKAPKLLIYVASSLQSGIPSRFSGRGSGTEFTLTISSLQPEDFATYYCQQSYSAPFTFGPGTKVDIKR
notes: also called Ab; Clone 5; Ab.5
EC50 (human PILRA R78 on cells [1]): 0.9 nM | binding result [2]: no binding | EC50 (human PILRA G78 on cells [3]): 32.5 nM | EC50 (human PILRA R78 on cells [4]): 1.3 nM | Kd [5]: 19 nM | Kd [6]: 0.66 nM | EC50 (human PILRA G78 on cells [7]): 9.8 nM | binding result (human PILRB on cells [8]): no binding (tested: 100 nM) | EC50 (human PILRA G78 on cells [9]): 17 nM | pSTAT3 Y705 induction, EC50 (nM) (human PILRA G78 on cells [10]): 1.51 nM | pSTAT3 Y705 induction, Fold Over Background (human PILRA G78 on cells [10]): 15.8 fold

B2: Anti-PILRA antibody clone 4 (antibody, human IgG1, kappa, L234A L235A, V domains shown)
VH: EVQLVESGGGLVQPGRSLRLSCAASGFTFDDYAIHWVRQAPGKGLEWVSGMSWNSGSIGYGDSVKGRFTISRDNAKNSLYLQMNSLRAEDTAFYYCAKDKSIGAAGRFDSWGQGTLVTVSS
VL: not shown
notes: also called Ab; Clone 4; Ab.4
binding result [2]: no binding | EC50 (human PILRA G78 on cells [3]): 24.9 nM | Kd [5]: 7.4 nM | Kd [6]: 8.3 nM | binding result (human PILRB on cells [8]): no binding (tested: 100 nM) | pSTAT3 Y705 induction, EC50 (nM) (human PILRA G78 on cells [10]): 1.98 nM | pSTAT3 Y705 induction, Fold Over Background (human PILRA G78 on cells [10]): 14.7 fold

B3: Anti-PILRA antibody clone 23 (antibody, V domains shown)
VH: EVQLVQSGAEVKKPGASVKVSCKASGYTFTEYYMYWVRQAPGQGLELIGRIDPEDGGTDYVEKFKNRATLTADTSTSTAYLELSSLRSEDTAVYFCASTIRGTVFVYWGQGTLVTVSS
VL: DIQMTQSPSSLSASVGDRVTITCRPSEDIYNGLAWYQQKPGKAPKLLIYNANSLHTGVPSRFSGSGSGTDYTLTISSLQPEDFATYYCQQYYDYPLTFGQGTKVEIK
notes: Humanized; also called Ab.23
Kd [11]: 0.495 nM | pSTAT3 S727 induction, EC50 (nM) (human PILRA R78 on cells [12]): 14.6 nM | pSTAT3 S727 induction, Fold Over Background (human PILRA R78 on cells [12]): 28.5 fold | pSTAT3 Y705 induction, EC50 (nM) (human PILRA R78 on cells [12]): 7.55 nM | pSTAT3 Y705 induction, Fold Over Background (human PILRA R78 on cells [12]): 36.2 fold | Kd [13]: 7.3 nM | Kd [14]: 117 nM | Kd [15]: 2.8 nM | Kd [16]: 47 nM | EC50 (human PILRA R78 on cells [17]): 3.7 nM | EC50 (human PILRA G78 on cells [18]): 21.4 nM | EC50 (human PILRA G78 on cells [19]): 18.2 nM | pSTAT3 S727 induction, EC50 (nM) (human PILRA G78 on cells [20]): 20.1 nM | pSTAT3 S727 induction, Fold Over Background (human PILRA G78 on cells [20]): 23.6 fold | pSTAT3 Y705 induction, EC50 (nM) (human PILRA G78 on cells [20]): 12.2 nM | pSTAT3 Y705 induction, Fold Over Background (human PILRA G78 on cells [20]): 31.4 fold

B4: Anti-PILRA antibody clone 38 (antibody, V domains shown)
VH: EVQLVQSGAEVKKPGASVKVSCKASGYTFTEYYMYWVRQAPGQGLELIGRIDPEDGGTDYVEKFKNRVTATADTSTSTAYLELSSLRSEDTAVYYCASTIRGTVFVYWGQGTLVTVSS
VL: DIQMTQSPSSLSASVGDRVTITCRPSEDIYNGLAWYQQKPGKAPKLLIYNANSLHTGVPSRFSGSGSGTDYTLTISSLQPEDFATYFCQQYYDYPLTFGQGTKVEIK
notes: Humanized
EC50 (human PILRA G78 on cells [21]): 13 to 14 nM | EC50 (human PILRA R78 on cells [22]): 2 to 4 nM | Kd [23]: 0.2 to 0.3 nM | Kd [24]: 35 to 53 nM | Kd [25]: 0.3 to 0.7 nM | Kd [26]: 11 nM

B5: Anti-PILRA antibody clone 39 (antibody, V domains shown)
VH: EVQLVQSGAEVKKPGASVKVSCKASGYTFTEYYMYWVRQAPGQGLELIGRIDPEDGGTDYIEKFKNRVTLTADTSTSTAYLELSSLRSEDTAVYYCATTIRGTVFAFWGQGTLVTVSS
VL: DIQMTQSPSSLSASVGDRVTITCRASEDIFNGLAWYQQKPGKSPKLLIYNAKTLHTGVPSRFSGSGSGSDYTLTISSLQPEDFATYFCQQYYDYPLTFGQGTKVEIK
notes: Humanized
EC50 (human PILRA G78 on cells [21]): 7 to 8 nM | EC50 (human PILRA R78 on cells [22]): 1 to 2 nM | Kd [23]: 0.4 nM | Kd [24]: 38 to 56 nM | Kd [25]: 0.2 to 0.4 nM | Kd [26]: 6.2 to 6.3 nM

B6: Anti-PILRA antibody clone 1 (antibody, V domains shown)
VH: EVQLVESGGGLVQPGRSLRLSCAVSGFTFDDYAMHWVRQAPGKGLEWVSGFSWNSGSIGYPDSVKGRFTISRDNAKNSLYLQMNSLRAEDTAFYYCAKDKSISAAGRFDYWGQGTLVTVSS
VL: DIQMTQSPSSLSASVGDRVTITCQASRRINNYLNWYQQKPGKAPKLLIYDASNLETGVPSRFTGSGSGTDFTLTISSLQPEDIATYYCQQYDNLPLTFGGGTKIKIK
EC50 (human PILRA R78 on cells [1]): 5.6 nM | binding result [2]: no binding | EC50 (human PILRA G78 on cells [3]): 13.8 nM | EC50 (human PILRA R78 on cells [4]): 14 nM | Kd [5]: 0.91 nM | Kd [6]: 2.3 nM | EC50 (human PILRA G78 on cells [7]): 1.8 nM | binding result (human PILRB on cells [8]): no binding (tested: 100 nM) | EC50 (human PILRA G78 on cells [9]): 6.8 nM | pSTAT3 Y705 induction, EC50 (nM) (human PILRA G78 on cells [10]): 5.66 nM | pSTAT3 Y705 induction, Fold Over Background (human PILRA G78 on cells [10]): 16.2 fold

B7: Reference Antibody #1 (antibody, human IgG1, kappa, L234A L235A, V domains shown)
VH: QVTLQESGPGILQPSQTLSLTCSFSGFSLSTFGMGVGWIRQPSGKGLEWLAHIWWDDDKYYNPALKSRLTISKDTSKNQVFLKIASVDTADIATYYCARVEDYGNPFDYWGQGTTLTVSS
VL: DIQMNQSPSSLSASLGDTITITCHASQNIHVWLNWYQQKPGNIPKLLIYKASNLHTGVPSRFSGSGSGTGFTVTISSLQPEDIATYYCQQGQSYPLTFGAGTKLELKR
binding result [27]: no binding | binding result [2]: no binding | binding result [28]: no binding (tested: 100 nM) | binding result (human PILRB on cells [29]): no binding (tested: 100 nM)

B8: Reference Antibody #4 (antibody, human IgG1, kappa, L234A L235A, V domains shown)
VH: QVTLKESGPGILQPSQTLSLTCSFSGFSLTTFGMGVGWIRQPSGKGLEWLAHIWWDDDKYYNPALKSRLTISKDISKNQVFLKIANVDTADTATYYCARIEDYGNPFDYWGQGTTLTVSS
VL: DIQMNQSPSSLSASLGDTITITCHASQNIHVWLSWYQQKPGNIPKLLIYKASNLHTGVPSRFSGSGSGTGFTLTISSLQPEDIATYYCQQGQSYPLTFGAGTKLELKR
binding result [27]: no binding | binding result [2]: no binding | binding result [28]: no binding (tested: 100 nM) | binding result (human PILRB on cells [29]): no binding (tested: 100 nM)

B9: Reference Antibody #2 (antibody, human IgG1, kappa, L234A L235A, V domains shown)
VH: QVILKESGPGILQSSQTLSLTCSFSGFSLSTFGMGVGWIRQPSGKGLESLAHIWWDDDKFYNPALKSRLTISKDTSKSQVFLKIANVDTADIATYYCTRIEDYGSYFAYWGQGTTLTVSS
VL: DVQMNQSPSSLSASLGDPITITCHASQNIHVWLNWYQQRPGNIPRLLIYKASNLHTGVPSRFSGSGSGTGFTLTISSLQPEDIATYYCQQGQSYPYTFGGGTKLEIKR
binding result [27]: no binding | binding result [2]: no binding | binding result [28]: no binding (tested: 100 nM) | binding result (human PILRB on cells [29]): no binding (tested: 100 nM)
